# Data reported in US20240150465A1 (Chugai, published 2024).
# Residue numbers refer to the chain shown, from its start.
# T1: recombinant human DLL3 (human, UniProt Q9NYJ7 27-492)
# T1 sequence: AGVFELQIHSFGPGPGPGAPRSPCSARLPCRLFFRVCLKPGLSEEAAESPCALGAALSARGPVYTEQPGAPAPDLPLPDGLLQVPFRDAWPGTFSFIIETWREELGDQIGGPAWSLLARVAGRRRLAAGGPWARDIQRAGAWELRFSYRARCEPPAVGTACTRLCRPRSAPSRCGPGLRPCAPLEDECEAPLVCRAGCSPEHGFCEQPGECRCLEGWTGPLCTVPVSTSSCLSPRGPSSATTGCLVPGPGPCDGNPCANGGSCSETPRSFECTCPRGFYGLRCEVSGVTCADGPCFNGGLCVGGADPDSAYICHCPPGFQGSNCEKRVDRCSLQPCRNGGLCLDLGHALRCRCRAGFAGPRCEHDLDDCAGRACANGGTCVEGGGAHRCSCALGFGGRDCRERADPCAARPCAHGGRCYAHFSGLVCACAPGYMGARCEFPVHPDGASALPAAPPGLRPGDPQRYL
# T2: Cynomolgus DLL3 ECD with Myc-tag on N-terminus and His-tag on C-terminus (cynomolgus)
# T2 construct: also called Myc-cynoDLL3-His; Cyno DLL3
# T2 chain: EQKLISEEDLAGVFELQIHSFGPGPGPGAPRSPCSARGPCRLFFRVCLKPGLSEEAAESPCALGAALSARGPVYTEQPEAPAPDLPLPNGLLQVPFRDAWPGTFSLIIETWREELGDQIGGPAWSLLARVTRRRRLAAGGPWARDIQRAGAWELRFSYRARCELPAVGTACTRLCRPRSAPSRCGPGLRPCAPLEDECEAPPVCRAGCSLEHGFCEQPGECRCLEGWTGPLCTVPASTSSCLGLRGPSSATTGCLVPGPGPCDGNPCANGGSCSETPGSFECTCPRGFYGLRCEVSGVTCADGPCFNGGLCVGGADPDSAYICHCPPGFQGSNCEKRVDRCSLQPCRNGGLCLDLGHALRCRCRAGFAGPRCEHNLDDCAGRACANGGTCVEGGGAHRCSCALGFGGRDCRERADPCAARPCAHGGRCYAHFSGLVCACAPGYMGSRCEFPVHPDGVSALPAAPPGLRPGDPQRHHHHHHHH
# B1: DL312-SG1 (antibody, human IgG1, kappa, V domains shown)
# VH: EVKLVESGGGLVQPGGSLSLSCAASGFTFTDYYMNWVRQPPGKALEWLALIRNKANGYTTEYNASVKGRFTISRDNSQNILYLQMNALRAEDSATYYCARDSDGYYEYYFDYWGQGTTLTVSS
# VL: DIQMTQSPSSLSASLGERVSLTCRASQEISDYLSWLQQKPDGTIKRLIFAASTLDSGVPKRFSGSRSGSDFSLSISSLESEDFADYYCLQYASYPYTFGSGTKLEIKR
# notes: Variable regions of a previously reported anti-DLL3 antibody on SG1/SK1; Also used biotin-labelled as a first antibody
# B2: DLL3-6-SG1 (antibody, human IgG1, kappa, V domains shown)
# VH: QVQLQESGPGLVKPSETLSLTCTVSGASISSFYWSWIRQPPGKGLEWIGYIYYSGTTNYNPSLKSRVTISVDTSKNQFSLKLSSVTAADTAVYYCARIAVAGFFFDYWGQGTLVTVSS
# VL: EIVLTQSPGTLSLSPGERATLSCRASQSVNKNYLAWYQQKPGQAPRLLIYGASSRATGIPDRFSGSGSGTDFTLTISRLEPEDFAVYYCQQYDRSPLTFGGGTKVEIKR
# notes: Variable regions of a previously reported anti-DLL3 antibody on SG1/SK1; Used as a second antibody only
# B3: DLL3-4-SG1 (antibody, human IgG1, kappa, V domains shown)
# VH: B2 VH with A27G, F32Y, I51V, R97S, A101T, F104Y
# VL: B2 VL with A19V, S28R, K31N, K40R, V105L
# notes: as for B2
# B4: DLL3-22-SG1 (antibody, human IgG1, kappa, V domains shown)
# VH: B2 VH with A27D, F32Y, S35T, N76S, R97S, A101R
# VL: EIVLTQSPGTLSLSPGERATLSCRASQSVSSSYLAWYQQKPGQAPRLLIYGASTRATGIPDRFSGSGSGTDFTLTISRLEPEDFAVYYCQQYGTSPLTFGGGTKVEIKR
# notes: as for B2
# B5: DL306-SG1 (antibody, human IgG1, kappa, V domains shown)
# VH: EVQLQQSGPELVKPGASVKMSCRASGYTFTDYYMKWVKQSHGKSLEWIGDINPNNGDTFYNQKFKGKATLTIDKSSSTAYMQLNSLTSDDSAVYYCARDGNYAYFDYWGQGTTLTVSS
# VL: DIVLTQSPASLAVSLGQRATISCRASKSVSTSGYSYMHWYQQKPGQPPKLLIFLASNLESGVPARFSGSGSGTDFTLNIHPVEEEDAATYYCQHSRHLPWTFGGGTKLEIKR
# notes: as for B1
# B6: DL301-SG1 (antibody, human IgG1, kappa, V domains shown)
# VH: QVQLQQSGADLVRPGTSVKVSCKASGYAFTNYLIEWIKQRPGQGLEWIGVMNPGSGGTHYSEKFRGKATLTADKSSSTAYMQLISLTSDDSAVYFCARSDYDYVTYAMDYWGQGTSVTVSS
# VL: DIKMTQSPSSMYASLGERVTITCKASQDINSYLIWFQQKPGKSPKTLIYRTNRLVDGVPSRFSGSGSGQDYSLTISSLEYGDMGIYYCLQYDEFPFTFGSGTKLEIKR
# notes: as for B1
# B7: DL309-SG1 (antibody, human IgG1, kappa, V domains shown)
# VH: QVQLQQSGGDLMKPGASVKISCKAAGYTFSNYYIEWVKQRPGHGLEWIGEILPGSGSTTYNEKFKGKASFTADTSSNTAYMQLSSLTSEDSAVYYCARWGAREPGFPYWGQGTLVTVSA
# VL: DIVMTQSQKFMSTSVGDRVSVTCKASQNVGTNVAWYQQKPGQSPKALIYSASYRYSGVPDRFTGSGSGTDFTLTISNVQSEDLAEYFCQQYNNYPLTFGAGTKLELKR
# notes: as for B1
# B8: D30316AE03/TR01 (bispecific antibody, V domains shown)
# VH 1: EVQLVESGGGLVQPGGSLRLSCAASGFTFSNYGVSWVRQAPGQGLEWMGYIDIAFGRTYYASWVTGRITINPDTSKNQFSLQLNSVTPEDTAVYYCARVALVVAGVAYYGMDVWGQGTLVTVSS
# VL 1: DIVMTQSPDSLAVSLGERATINCQASQNIYSYLSWYQQKPGKAPKLLIYRTSTLASGVPDRFSGSGSGTDFTLKISRVEAEDVGVYYCQSYYYSSGSSYGAFAFGQGTKVEIK
# VH 2: QVQLVESGGGVVQPGGSLRLSCAASGFTFSNAWMHWVRQAPGKGLEWVAQIKDKSQNYATYVAESVKGRFTISRADSKNSIYLQMNSLKTEDTAVYYCRYVHYAAGYGVDIWGQGTTVTVSS
# VL 2: DIVMTQSPLSLPVTPGEPASISCRSSQPLVHSNRNTYLHWYQQKPGQAPRLLIYKVSNRFSGVPDRFSGSGSGTDFTLKISRVEAEDVGVYYCGQGTQVPYTFGQGTKLEIK
# notes: IgG-type anti-DLL3/CD3 bispecific made by Fab arm exchange
# Target: T1, recombinant human DLL3
# Assay: Octet binning on SA sensor; Antibody A (biotinylated, loaded first): DL301-SG1; then 20 nM human DLL3, then 80 nM Antibody B
# Method: (§1) Octet (registered trademark) RED384 (Fortebio) was used to perform competitive binding assays by epitope binning for a panel of antibodies. A biotinylated antibody (DL301-SG1, DL306-SG1, DL309-SG1, DL312-SG1, D30316AE02-SG1, and D30841AE05-SG1) at 40 nM was first loaded to a streptavidin (SA) biosensor. Next, the sensor is exposed to 20 nM of human DLL3, followed by exposure to 80 nM of second antibody. The second antibodies are DL301-SG1, DL306-SG1, DL309-SG1, DL312-SG1, D30316AE02-SG1, D30841AE05-SG1, DLL3-14-SG1, DLL3-22-SG1, DLL3-4-SG1 and DLL3-6-SG1. Raw data was processed using ForteBio's Data Analysis Software 7.0 and the antibody pairs were assessed for competitive binding. Additional binding by the second antibody indicates an unoccupied epitope (non-competitor), while no binding indicates epitope blocking (competitor).
# (§2) The competition ratio of antibody B to antibody A was calculated using the following equation: Competition Ratio (Antibody B to Antibody A)=[Binding Response (Antibody B-Antigen)]/[Binding Response (Antigen-Antibody A)]
row,competition ratio (Antibody B to Antibody A),Binder
1,1,B1
2,1.2,B2
3,1.2,B3
4,1.2,B4
5,1.1,B5
6,-0.1,B6
7,1.4,B7

# Target: recombinant human CD3eg protein (CD3 epsilon-gamma, heterodimer of CD3 epsilon and CD3 gamma) (human, UniProt P07766 23-126; P09693 23-116)
# Assay: SPR Biacore 8K, 37 C, pH 7.4; bispecific captured on anti-human Fc, human CD3eg as analyte, 1:1 model
# Method: (§3) Binding affinity of the anti-CD3 arm of the anti-DLL3/CD3 bispecific antibodies to CD3 at pH 7.4 was assessed at 37 degrees C. using Biacore 8K instrument (GE Healthcare). Anti-human Fc (GE Healthcare) was immobilized onto all flow cells of a CM4 sensor chip using amine coupling kit (GE Healthcare). The bispecific antibodies were captured onto the anti-Fc sensor surfaces, and then recombinant human CD3eg proteins (CD3 epsilon-gamma, heterodimer of CD3 epsilon and CD3 gamma) was injected over the flow cell. All antibodies and analytes were prepared in ACES pH 7.4 containing 20 mM ACES, 150 mM NaCl, 0.05% Tween 20, 0.005% NaN₃. Sensor surface was regenerated each cycle with 3M MgCl₂.
# Chain of recombinant human CD3eg protein (CD3 epsilon-gamma, heterodimer of CD3 epsilon and CD3 gamma) (P07766 23-126 limits assumed, chain 1 of 2): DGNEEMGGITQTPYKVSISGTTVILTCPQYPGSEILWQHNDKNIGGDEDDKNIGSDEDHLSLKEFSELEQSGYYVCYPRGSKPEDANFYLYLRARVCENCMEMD
# Chain of recombinant human CD3eg protein (CD3 epsilon-gamma, heterodimer of CD3 epsilon and CD3 gamma) (P09693 23-116 limits assumed, chain 2 of 2): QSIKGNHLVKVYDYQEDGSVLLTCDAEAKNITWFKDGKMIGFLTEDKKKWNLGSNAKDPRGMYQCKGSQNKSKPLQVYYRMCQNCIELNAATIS
Kd [nM],koff [s⁻¹],kon [M⁻¹ s⁻¹],Binder
127,0.0169,134000,B8

# Target: T1, recombinant human DLL3
# Assay: Octet binning on SA sensor; Antibody A (biotinylated, loaded first): DL312-SG1; then 20 nM human DLL3, then 80 nM Antibody B
# Method: as §1, §2
row,competition ratio (Antibody B to Antibody A),Binder
1,0.2,B1
2,1.3,B2
3,1.3,B3
4,1.3,B4
5,1.2,B5
6,1.3,B6
7,1.5,B7

# Target: T1, recombinant human DLL3
# Assay: Octet binning on SA sensor; Antibody A (biotinylated, loaded first): DL306-SG1; then 20 nM human DLL3, then 80 nM Antibody B
# Method: as §1, §2
row,competition ratio (Antibody B to Antibody A),Binder
1,1.4,B1
2,1.3,B2
3,1.3,B3
4,1.3,B4
5,0,B5
6,1.3,B6
7,1.4,B7

# Target: T1, recombinant human DLL3
# Assay: Octet binning on SA sensor; Antibody A (biotinylated, loaded first): D30841AE05-SG1; then 20 nM human DLL3, then 80 nM Antibody B
# Method: as §1, §2
row,competition ratio (Antibody B to Antibody A),Binder
1,1.4,B1
2,1.3,B2
3,1.3,B3
4,1.3,B4
5,0,B5
6,1.3,B6
7,1.5,B7

# Target: T2, Cynomolgus DLL3 ECD with Myc-tag on …
# Assay: SPR Biacore 8K, 37 C, pH 7.4; bispecific captured on anti-human Fc, DLL3 as analyte, 1:1 model
# Method: as §3, with “of anti-DLL3” for “of the anti-CD3”, “arm in” for “arm of”, “anti-DLL3/CD3” for “anti-DLL3/CD3 bispecific”, “to human or cynomolgus DLL3” for “to CD3”, “7.4 were” for “7.4 was”, “human or cynomolgus DLL3” for “human CD3eg proteins (CD3 epsilon-gamma, heterodimer of CD3 epsilon and CD3 gamma)”
Kd [nM],koff [s⁻¹],kon [M⁻¹ s⁻¹],Binder
0.0117,2.72e-05,2.32e+06,B8

# Target: T1, recombinant human DLL3
# Assay: as above
# Method: as §3, with “of anti-DLL3” for “of the anti-CD3”, “arm in” for “arm of”, “anti-DLL3/CD3” for “anti-DLL3/CD3 bispecific”, “to human or cynomolgus DLL3” for “to CD3”, “7.4 were” for “7.4 was”, “human or cynomolgus DLL3” for “human CD3eg proteins (CD3 epsilon-gamma, heterodimer of CD3 epsilon and CD3 gamma)”
Kd [nM],koff [s⁻¹],kon [M⁻¹ s⁻¹],Binder
0.0261,6.11e-05,2.34e+06,B8

# Target: T1, recombinant human DLL3
# Assay: Octet binning on SA sensor; Antibody A (biotinylated, loaded first): D30316AE02-SG1; then 20 nM human DLL3, then 80 nM Antibody B
# Method: as §1, §2
row,competition ratio (Antibody B to Antibody A),Binder
1,1.4,B1
2,1.3,B2
3,1.3,B3
4,1.3,B4
5,1.5,B5
6,1.3,B6
7,1.4,B7

# Target: T1, recombinant human DLL3
# Assay: Octet binning on SA sensor; Antibody A (biotinylated, loaded first): DL309-SG1; then 20 nM human DLL3, then 80 nM Antibody B
# Method: as §1, §2
row,competition ratio (Antibody B to Antibody A),Binder
1,1.1,B1
2,1,B2
3,1,B3
4,0.9,B4
5,0.9,B5
6,1.2,B6
7,-0.1,B7
